{"source": "patent US20220332795A1", "about": "(ARO BIOTHERAPEUTICS, published 2022)", "binders": {"B1": {"name": "SEQ ID NO 213 (designed binder, not shown: small tags and cut ends)", "chain": "MLPAPKNLVVSRVTEDSARLSWTAPDAAFDSFYIAYAEPRPDGEAILLGVPGSERSYDLTGLKPGTEYSVLIHGVKGGLLSSPLFTT"}, "B2": {"name": "SEQ ID NO 268 (designed binder, not shown: small tags and cut ends)", "chain": "B1 chain with L47Y, G49E"}, "B3": {"name": "SEQ ID NO 259 (designed binder, not shown: small tags and cut ends)", "chain": "MLPAPKNLVVSRVTEDSARLSWTAPDAAFDSFYIAYAEPRPDGEAIQLGVPGSERSYDLTGLKPGTEYSVLIHGVKGGLLSSPLLAVFTT"}, "B4": {"name": "SEQ ID NO 260 (designed binder, not shown: small tags and cut ends)", "chain": "B3 chain with Q47H, G49R, S69N, L71T, H73Q, L79F, L80P, S82M, L85S, V87I"}, "B5": {"name": "SEQ ID NO 264 (designed binder, not shown: small tags and cut ends)", "chain": "B3 chain with Q47N, G49S, L85D, V87Y"}, "B6": {"name": "SEQ ID NO 265 (designed binder, not shown: small tags and cut ends)", "chain": "B3 chain with Q47V, G49E, L85T, V87S"}, "B7": {"name": "SEQ ID NO 263 (designed binder, not shown: small tags and cut ends)", "chain": "B3 chain with Q47A, G49V, L85A, V87N"}, "B8": {"name": "SEQ ID NO 266 (designed binder, not shown: small tags and cut ends)", "chain": "B3 chain with Q47R, G49Q, L85G, V87S"}, "B9": {"name": "SEQ ID NO 269 (designed binder, not shown: small tags and cut ends)", "chain": "B3 chain with Q47W, G49D, L85D, V87Y"}, "B10": {"name": "SEQ ID NO 261 (designed binder, not shown: small tags and cut ends)", "chain": "B3 chain with Q47L, G49Q, L85I, V87K"}, "B11": {"name": "SEQ ID NO 262 (designed binder, not shown: small tags and cut ends)", "chain": "B3 chain with Q47V, G49H, L85Q, V87I"}, "B12": {"name": "SEQ ID NO 267 (designed binder, not shown: small tags and cut ends)", "chain": "B3 chain with Q47G, G49W, L85V, V87Y"}, "B13": {"name": "SEQ ID NO 243 (designed binder, not shown: small tags and cut ends)", "chain": "MLPAPKNLVVSRVTEDSARLSWTAPDAAFDSFFIGYLEPQPPGEAIHLAVPGSERSYDLTGLKPGTEYNVTIQGVKGGFPSVPLAAVFTT"}, "B14": {"name": "SEQ ID NO 251 (designed binder, not shown: small tags and cut ends)", "chain": "B13 chain with H47G, A49W, V82D, A85Q"}, "B15": {"name": "SEQ ID NO 270 (designed binder, not shown: small tags and cut ends)", "chain": "MLPAPKNLVVSRVTEDSARLSWTAPDAAFDSFAIEYCETKMCGEAIVLTVPGSERSYDLTGLKPGTEYRVPIPGVKGGTASLPLSAIFTT"}}, "note": "Substitutions are numbered along the chain they refer to."}
{"biological_target": "T1, CD71 apical domain (human, UniProt P02786 189-383, limits assumed)", "T1 construct": "domain: apical domain", "T1 sequence (P02786 189-383 limits assumed)": "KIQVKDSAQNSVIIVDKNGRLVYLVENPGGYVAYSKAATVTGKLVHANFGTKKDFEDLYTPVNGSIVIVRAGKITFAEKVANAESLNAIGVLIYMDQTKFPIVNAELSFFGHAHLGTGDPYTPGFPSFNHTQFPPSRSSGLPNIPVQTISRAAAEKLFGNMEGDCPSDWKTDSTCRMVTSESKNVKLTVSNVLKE", "assay": "solution ELISA screen (luminescence)", "units": {"RLU": "RLU"}}
{"binder": "B1", "RLU": "2.03e+06"}
{"binder": "B2", "RLU": 94800}
{"binder": "B3", "RLU": "5.96e+06"}
{"binder": "B4", "RLU": "7.05e+06"}
{"binder": "B5", "RLU": "4.32e+06"}
{"binder": "B6", "RLU": "7.21e+06"}
{"binder": "B7", "RLU": "4.37e+06"}
{"binder": "B8", "RLU": "4.23e+06"}
{"binder": "B9", "RLU": "5.56e+06"}
{"binder": "B10", "RLU": 93200}
{"binder": "B11", "RLU": "7.13e+06"}
{"binder": "B12", "RLU": "5.55e+06"}
{"binder": "B13", "RLU": "3.19e+06"}
{"binder": "B14", "RLU": "5.73e+06"}
{"binder": "B15", "RLU": "6.49e+06"}
{"biological_target": "T2, human CD71 extracellular domain (human, UniProt P02786 89-760, biotinylated)", "T2 construct": "extracellular domain; also called hCD71; huCD71 ECD", "T2 sequence (P02786 other isoform, or with tags, fused parts or gaps)": "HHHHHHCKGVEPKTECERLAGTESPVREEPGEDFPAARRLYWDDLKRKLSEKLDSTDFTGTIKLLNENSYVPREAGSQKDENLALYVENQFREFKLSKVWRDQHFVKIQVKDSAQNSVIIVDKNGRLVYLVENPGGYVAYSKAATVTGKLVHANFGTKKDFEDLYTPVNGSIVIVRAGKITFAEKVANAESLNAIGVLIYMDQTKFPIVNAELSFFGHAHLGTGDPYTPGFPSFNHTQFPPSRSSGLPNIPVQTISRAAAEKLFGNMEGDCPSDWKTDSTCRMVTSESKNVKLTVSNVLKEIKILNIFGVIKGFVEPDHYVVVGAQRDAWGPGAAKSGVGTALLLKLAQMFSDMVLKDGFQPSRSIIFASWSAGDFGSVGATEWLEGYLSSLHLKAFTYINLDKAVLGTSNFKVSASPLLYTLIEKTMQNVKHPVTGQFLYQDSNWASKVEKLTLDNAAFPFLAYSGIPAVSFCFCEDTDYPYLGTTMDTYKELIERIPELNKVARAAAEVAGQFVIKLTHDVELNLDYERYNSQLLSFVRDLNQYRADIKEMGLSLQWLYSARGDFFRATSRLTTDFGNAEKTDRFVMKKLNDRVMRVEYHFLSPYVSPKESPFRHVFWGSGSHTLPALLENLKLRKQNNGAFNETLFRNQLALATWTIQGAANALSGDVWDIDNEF", "assay": "solution ELISA screen (luminescence)", "units": {"RLU": "RLU"}}
{"binder": "B1", "RLU": "1.73e+06"}
{"binder": "B2", "RLU": "2.77e+06"}
{"binder": "B3", "RLU": "1.26e+06"}
{"binder": "B4", "RLU": "4.88e+06"}
{"binder": "B5", "RLU": 368000}
{"binder": "B6", "RLU": "5.77e+06"}
{"binder": "B7", "RLU": 584000}
{"binder": "B8", "RLU": 418000}
{"binder": "B9", "RLU": 812000}
{"binder": "B10", "RLU": "2.39e+06"}
{"binder": "B11", "RLU": "3.94e+06"}
{"binder": "B12", "RLU": 573000}
{"binder": "B13", "RLU": "1.97e+06"}
{"binder": "B14", "RLU": "2.51e+06"}
{"binder": "B15", "RLU": "3.32e+06"}
{"biological_target": "T1, CD71 apical domain", "assay": "solution ELISA screen, signal ratio to HSA control", "units": {"apical domain:HSA": "ratio"}}
{"binder": "B1", "apical domain:HSA": 28.9}
{"binder": "B2", "apical domain:HSA": 0.8}
{"binder": "B3", "apical domain:HSA": 235}
{"binder": "B4", "apical domain:HSA": 211}
{"binder": "B5", "apical domain:HSA": 177}
{"binder": "B6", "apical domain:HSA": 235}
{"binder": "B7", "apical domain:HSA": 184}
{"binder": "B8", "apical domain:HSA": 117}
{"binder": "B9", "apical domain:HSA": 279}
{"binder": "B10", "apical domain:HSA": 0.5}
{"binder": "B11", "apical domain:HSA": 231}
{"binder": "B12", "apical domain:HSA": 186}
{"binder": "B13", "apical domain:HSA": 103}
{"binder": "B14", "apical domain:HSA": 220}
{"binder": "B15", "apical domain:HSA": 101}
{"biological_target": "T2, human CD71 extracellular domain", "assay": "solution ELISA screen, signal ratio to HSA control", "units": {"hCD71:HSA": "ratio"}}
{"binder": "B1", "hCD71:HSA": 24.6}
{"binder": "B2", "hCD71:HSA": 23.6}
{"binder": "B3", "hCD71:HSA": 49.7}
{"binder": "B4", "hCD71:HSA": 146}
{"binder": "B5", "hCD71:HSA": 15.1}
{"binder": "B6", "hCD71:HSA": 188}
{"binder": "B7", "hCD71:HSA": 24.5}
{"binder": "B8", "hCD71:HSA": 11.6}
{"binder": "B9", "hCD71:HSA": 40.8}
{"binder": "B10", "hCD71:HSA": 13.7}
{"binder": "B11", "hCD71:HSA": 128}
{"binder": "B12", "hCD71:HSA": 19.2}
{"binder": "B13", "hCD71:HSA": 63.8}
{"binder": "B14", "hCD71:HSA": 96.1}
{"binder": "B15", "hCD71:HSA": 51.6}
